Earlier results, collected in publication PMC10108826.

Biological target: sIL-6R soluble ECD (Homo sapiens) (UniProt P08887)
UniProt P08887, sequence (P08887 20-355): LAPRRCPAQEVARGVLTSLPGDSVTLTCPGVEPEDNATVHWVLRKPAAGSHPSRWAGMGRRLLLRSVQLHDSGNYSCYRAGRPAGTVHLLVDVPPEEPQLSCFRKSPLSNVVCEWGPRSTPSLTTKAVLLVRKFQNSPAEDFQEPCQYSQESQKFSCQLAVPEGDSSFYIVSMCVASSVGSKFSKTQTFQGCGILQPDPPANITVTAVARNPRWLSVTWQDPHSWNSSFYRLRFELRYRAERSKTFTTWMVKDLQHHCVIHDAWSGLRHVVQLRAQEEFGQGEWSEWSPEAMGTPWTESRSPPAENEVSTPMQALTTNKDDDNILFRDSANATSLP

Kd: 1 nM
Substance: IL-6 (from UniProt P05231)
